For data set [1], the target named is T1, MBP-AtYchF1 (Arabidopsis thaliana, UniProt Q9SA73).
T1 construct: gene YchF1; AtYchF1 cDNA in pMAL-C2, N-terminal MBP tag kept, E. coli BL21 (DE3)
T1 sequence (Q9SA73 1-394): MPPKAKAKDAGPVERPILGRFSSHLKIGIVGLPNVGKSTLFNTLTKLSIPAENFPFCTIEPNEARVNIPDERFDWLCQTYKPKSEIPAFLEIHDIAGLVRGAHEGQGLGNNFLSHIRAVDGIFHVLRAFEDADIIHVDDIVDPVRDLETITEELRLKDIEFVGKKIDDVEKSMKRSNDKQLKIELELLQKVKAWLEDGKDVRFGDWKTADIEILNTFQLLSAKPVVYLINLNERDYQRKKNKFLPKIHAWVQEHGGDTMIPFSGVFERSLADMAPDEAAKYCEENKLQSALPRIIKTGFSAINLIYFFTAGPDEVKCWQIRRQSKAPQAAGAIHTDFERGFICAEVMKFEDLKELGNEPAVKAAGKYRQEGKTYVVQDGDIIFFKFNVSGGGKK
The experiment in a line: competition with Mant-GTP or Mant-ATP, fluorescence […]-500 nm. Format: binding. To be noted: 31 μM Mant-GTP or Mant-ATP; about 100 μM MBP-AtYchF1; competitive.

Substrate in data set [2]: Nc1nc2c(ncn2[C@@H]2O[C@H](COP(=O)(O)OP(=O)(O)OP(=O)(O)O)[C@@H](O)[C@H]2O)c(=O)[nH]1
Description: purified protein. The format is biochemical, Arabidopsis thaliana. To be noted: 300 μM MBP-AtYchF1; Pi release.

Substrate in data set [3]: Nc1ncnc2c1ncn2[C@@H]1O[C@H](COP(=O)(O)OP(=O)(O)OP(=O)(O)O)[C@@H](O)[C@H]1O
The experiment in a line: purified protein. Format: biochemical, Arabidopsis thaliana. The conditions noted are these: 300 μM MBP-AtYchF1; Pi release.

Substrate in data set [4]: Nc1nc2c(ncn2[C@@H]2O[C@H](COP(=O)(O)OP(=O)(O)O)[C@@H](OP(=O)(O)OP(=O)(O)O)[C@H]2O)c(=O)[nH]1
Description: purified protein. The format is biochemical, Arabidopsis thaliana. To be noted: 300 μM MBP-AtYchF1; room temperature; PPi release.

On to `Nc1nc2c(ncn2[C@@H]2O[C@H](COP(=O)(O)OP(=O)(O)O)[C@@H](OP(=O)(O)OP(=O)(O)O)[C@H]2O)c(=O)[nH]1` [ppGpp], for which, in data set [1], the “competition with Mant-GTP or Mant-ATP, fluorescence 400-500 nm” value was “ppGpp competed well against Mant-GTP and Mant-ATP for the binding of MBP-AtYchF1”.

B1: MBP-AtYchF1 (Arabidopsis thaliana) (protein)
chain: T1 sequence (Q9SA73 1-394)
notes: AtYchF1 cDNA in pMAL-C2, N-terminal MBP tag kept, E. coli BL21 (DE3)
For the molecule B1, the Km (in general, the substrate concentration at which the rate is half of its maximum) in data set [2] stood at 1.203 ± 0.1255 mM; in data set [3], 1.278 ± 0.1838 mM; in data set [4] it was 2.235 ± 0.2943 mM. Besides, the Vmax (usually the rate approached at saturating substrate) is 0.0924 µmol/min in data set [2], 0.0939 µmol/min in data set [3] and 0.0349 µmol/min in data set [4].

The values above are taken from paper PMC9748339, “Co-crystalization reveals the interaction between AtYchF1 and ppGpp” (Frontiers in Molecular Biosciences, 2022).
